Test results taken from patent US20100286374A1 (Amgen, published 2010).

B1: Fc-containing molecule with triple mutation D399K, E356K, E357K (Fc fusion)
chain: HMAEVQLQQSGAELVKPGSSVKISCKASGYTFANNFMHWIKQQPGNGLEWIGWIYPGDGDTEYNQKFSGKATLTADKSSSTAYMQLNSLTSEDSAVYFCIRLTEGTTYWGQGVMVTVSSGGGGSGGGGSGGGGSQFVLTQPNSVSTNLGSTVKLSCKRSTGNIGSNYVNWYQQHEGRSPTTMIYRDDKRPDGVPDRFSGSIDGSSNSALLTINNVQTEDEADYFCQSYSRGVSPVFGGGTKLTVLAAAEPKSCDKTHTCPPCPAPELLGGPSVFLFPPKPKDTLMISRTPEVTCVVVDVSHEDPEVKFNWYVDGVEVHNAKTKPREEQYNSTYRVVSVLTVLHQDWLNGKEYKCKVSNKALPAPIEKTISKAKGQPREPQVYTLPPSRKKMTKNQVSLTCLVKGFYPSDIAVEWESNGQPENNYKTTPPVLKSDGSFFLYSKLTVDKSRWQQGNVFSCSVMHEALHNHYTQKSLSLSPGK
B2: Fc-containing molecule with triple mutation K409D, K392D, K370D (other)
chain: EPKSCDKTHTCPPCPAPELLGGPSVFLFPPKPKDTLMISRTPEVTCVVVDVSHEDPEVKFNWYVDGVEVHNAKTKPREEQYNSTYRVVSVLTVLHQDWLNGKEYKCKVSNKALPAPIEKTISKAKGQPREPQVYTLPPSREEMTKNQVSLTCLVDGFYPSDIAVEWESNGQPENNYDTTPPVLDSDGSFFLYSDLTVDKSRWQQGNVFSCSVMHEALHNHYTQKSLSLSPGK
B3: Fc-containing molecule with triple mutation K409D, K392D, K439D (other)
chain: EPKSCDKTHTCPPCPAPELLGGPSVFLFPPKPKDTLMISRTPEVTCVVVDVSHEDPEVKFNWYVDGVEVHNAKTKPREEQYNSTYRVVSVLTVLHQDWLNGKEYKCKVSNKALPAPIEKTISKAKGQPREPQVYTLPPSREEMTKNQVSLTCLVKGFYPSDIAVEWESNGQPENNYDTTPPVLDSDGSFFLYSDLTVDKSRWQQGNVFSCSVMHEALHNHYTQDSLSLSPGK

Biological target: the molecule itself
Assay: homodimer formation; expressed alone in 293-6E, western blot with goat anti-human Fc HRP
Excerpt: FIG. 11. […] Fc molecules were detected using goat-anti-human Fc HRP conjugated at 1:10,000.
DNA was transfected into human embryonic kidney cell line 293-6E using Lipofectamine™ 2000 reagent (Invitrogen). The cell culture supernatant was harvested 3-4 days after transfection and analyzed on SDS-PAGE Gels under non-reduced condition. The gel was then transferred to nitrocellulose membrane and subject to western analysis using peroxidase-conjugated goat anti-human IgG antibody (Jackson ImmunoResearch Laboratories) and results are shown in FIG. 10.
Mutants were made and cells transfected as described in Example 1. When the constructs were co-transfected, a 1:1 ratio of plasmids were used. Heterodimer and homodimers were detected by Western blot using goat-anti-human Fc HRP conjugated antibody. […] Similarly, Fc-containing molecules having triple mutations wherein negative-charged residues were changed to positive-charged residues (D399K,E356K,E357K) were unable to be detected when expressed alone. When co-expressed with an Fc-containing molecule having mutations of opposite charge polarity, however, heterodimers only were detected.

Binding result, no binding:
B1, B2, B3
